Measured values reported in US20200353078A1 (AstraZeneca / MedImmune, published 2020).

Key:
[1] = molecular target: T1, Cynomolgus IL-33 Flag®His (cynomolgus monkey); test: phage ELISA
T1 construct: C-terminal FLAG 10xHis tag, E. coli; also called Mature Cynomolugus IL-33; cyno IL-33 FH
T1 chain: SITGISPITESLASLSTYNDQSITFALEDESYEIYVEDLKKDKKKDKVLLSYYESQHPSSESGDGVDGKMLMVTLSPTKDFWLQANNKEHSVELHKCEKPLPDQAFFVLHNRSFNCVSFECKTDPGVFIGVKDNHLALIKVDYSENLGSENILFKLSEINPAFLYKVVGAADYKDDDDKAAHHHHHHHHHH

[2] = molecular target: T2, Human IL-33 Flag®His (human); test: phage ELISA
T2 construct: Mature IL-33 with C-terminal FLAG 10xHis tag, from E. coli; biotinylated via free cysteines where used biotinylated; also called Mature Human IL-33_FH; human IL-33 FH
T2 chain: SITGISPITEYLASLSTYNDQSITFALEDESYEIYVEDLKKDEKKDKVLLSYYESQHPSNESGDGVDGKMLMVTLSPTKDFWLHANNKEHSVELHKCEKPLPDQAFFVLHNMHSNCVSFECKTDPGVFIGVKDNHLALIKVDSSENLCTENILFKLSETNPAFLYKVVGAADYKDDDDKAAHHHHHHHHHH

[3] = molecular target: T3, Mouse IL-33 Flag®His (mouse); test: phage ELISA
T3 construct: C-terminal FLAG 10xHis tag, E. coli; also called Mature Mouse IL-33_FH; mouse IL-33 FH
T3 chain: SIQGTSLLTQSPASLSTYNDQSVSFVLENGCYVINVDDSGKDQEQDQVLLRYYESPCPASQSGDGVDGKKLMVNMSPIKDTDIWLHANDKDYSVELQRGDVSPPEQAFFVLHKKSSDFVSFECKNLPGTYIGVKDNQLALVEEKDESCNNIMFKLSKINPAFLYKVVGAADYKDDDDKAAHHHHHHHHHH

[4] = molecular target: T4, Human ST2-Fc (R&D Systems, or source not stated in the example) (human, UniProt Q01638 19-328); test: Biacore T100, ST2-Fc captured on Protein G', peptide as analyte
T4 construct: extracellular domain; also called sST2.Fc; sST2
T4 sequence (looked up): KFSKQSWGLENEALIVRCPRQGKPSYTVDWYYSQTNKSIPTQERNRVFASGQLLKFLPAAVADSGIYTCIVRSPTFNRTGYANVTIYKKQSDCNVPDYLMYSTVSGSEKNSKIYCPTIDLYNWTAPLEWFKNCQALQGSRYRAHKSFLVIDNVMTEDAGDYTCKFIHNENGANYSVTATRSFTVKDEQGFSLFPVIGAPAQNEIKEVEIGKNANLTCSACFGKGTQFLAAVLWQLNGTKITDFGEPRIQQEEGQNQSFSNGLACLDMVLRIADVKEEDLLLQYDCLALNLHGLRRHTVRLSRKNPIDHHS
From the text: The identified peptide together with a truncate ([…]) and scrambled variants of both, were then chemically synthesised and used in confirmatory T100 Biacore (GE Healthcare) binding studies. Protein G′ (Sigma Aldrich, P4689) was covalently coupled to the surface of a CM5 sensor chip (GE Healthcare) using standard amine coupling reagents according to manufacturer's instructions. The protein G′ surface was used to capture H338L293 or ST2-Fc via the Fc domain to provide a surface density of approximately 290 RU per cycle. IL33 peptides prepared in HBS-EP+ buffer, at a range of concentrations were passed over the sensor chip surface. The surface was regenerated using two 10 mM Glycine washes of pH 1.7 and pH 1.5 between each injection of antibody. The resulting sensorgrams were evaluated using Biacore T100 evaluation software 2.0.3 (GE Healthcare) and fitted to a 1:1 Langmuir binding model, to provide relative binding data.

[5] = molecular target: T1, Cynomolgus IL-33 Flag®His; test: HTRF, test protein competing with biotinylated IL33-01 for DyLight650 labelled IgG
Protocol: (§1) Human, cyno and mouse IL-33 FLAG® His (described in Example 1 and Table 21), Human IL-1 alpha and IL-1 beta (R&D Systems) (Table 21) or rat IL-33 (GenScript) were tested for inhibition of human IL-33 binding to DyLight650 labelled 33_640087-7B or DyLight650 labelled 33_640237-2B by adding 5 microlitres of each dilution of sample to a 384 well low volume assay plate (Costar, 3673). […] This was followed by the addition of 2.5 microlitres of a solution containing 0.12 nM biotinylated human IL-33-01 combined with 0.75 nM streptavidin cryptate detection (Cisbio International, 610SAKLB). All dilutions were performed in assay buffer containing 0.8 M potassium fluoride (VWR, 26820.236) and 0.1% bovine serum albumin (BSA, PAA, K05-013) in Dulbeccos PBS (Invitrogen, 14190185). Assay plates were incubated for 4 hours at room temperature followed by 18 hours at 4 degrees Celsius and time resolved fluorescence was read at 620 nm and 665 nm emission wavelengths using an EnVision plate reader (Perkin Elmer). Data were analysed by calculating the 665/620 nm ratio followed by the % Delta F values for each sample. The 665/620 nm ratio was used to correct for sample interference using Equation 1. The % Delta F for each sample was then calculated using Equation 2. The negative control (non-specific binding) was defined by replacing biotinylated human IL-33 combined with streptavidin cryptate detection with streptavidin cryptate detection only. The % Delta F values were subsequently used to calculate % specific binding as described in Equation 3. IC₅₀ values were determined using GraphPad Prism software by curve fitting using a four-parameter logistic equation (Equation 4).

[6] = molecular target: T2, Human IL-33 Flag®His; test: as above
Protocol: as §1

[7] = molecular target: T3, Mouse IL-33 Flag®His; test: as above
Protocol: as §1

[8] = molecular target: T5, His10/Avi Human IL33-01 (human); test: cell-based or functional assay
T5 chain: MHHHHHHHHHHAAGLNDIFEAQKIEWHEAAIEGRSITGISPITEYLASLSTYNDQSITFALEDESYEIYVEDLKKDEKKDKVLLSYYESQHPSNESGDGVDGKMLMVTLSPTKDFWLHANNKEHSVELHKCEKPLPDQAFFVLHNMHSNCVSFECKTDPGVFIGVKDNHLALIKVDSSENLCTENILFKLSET

[9] = molecular target: Human IL-1 beta (R&D Systems) (human, UniProt P01584 117-269); test: HTRF: unlabelled test protein competes with biotinylated human IL33-01 for DyLight650 labelled 33_640237-2B IgG
Method in brief: (§2)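 HTRF competition: dilutions of unlabelled test protein competed with biotinylated human IL-33-01 (0.12 nM solution, with 0.75 nM streptavidin cryptate) for DyLight650-labelled 33_640087-7B or 33_640237-2B, in DPBS with 0.8 M KF and 0.1% BSA. Incubation was 4 h at RT, then 18 h at 4 °C. The 665/620 nm ratio gave % specific binding; IC50 by four-parameter fit.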

[10] = molecular target: T6, Rat IL-33 (GenScript) (rat, UniProt Q66H70 109-264, limits assumed); test: as above
T6 sequence (looked up): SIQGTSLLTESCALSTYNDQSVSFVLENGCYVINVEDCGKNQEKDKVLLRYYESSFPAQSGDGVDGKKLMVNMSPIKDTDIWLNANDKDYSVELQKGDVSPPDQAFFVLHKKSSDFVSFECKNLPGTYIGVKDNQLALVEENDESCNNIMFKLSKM
Method in brief: as §2

[11] = molecular target: T7, Human IL-1 alpha (R&D Systems) (human, UniProt P01583 113-271); test: as above
T7 sequence (looked up): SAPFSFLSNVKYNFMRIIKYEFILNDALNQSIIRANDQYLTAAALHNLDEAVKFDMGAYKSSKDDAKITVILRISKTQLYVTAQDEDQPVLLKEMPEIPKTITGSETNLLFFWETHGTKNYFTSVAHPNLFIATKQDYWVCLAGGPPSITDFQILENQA
Method in brief: as §2

B1: IL330180 scFv (scFv, V domains shown)
VH: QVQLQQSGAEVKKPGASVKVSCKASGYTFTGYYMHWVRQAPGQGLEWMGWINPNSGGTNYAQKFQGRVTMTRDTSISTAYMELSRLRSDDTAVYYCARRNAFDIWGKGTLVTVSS
VL: QPVLTQPPSVSEAPRQRVTISCSGSSSNIGNNAVNWYQQLPGTAPKLLIYRNNQRPSGVPDRFSGSKSGTSASLAISGLRSEDEADYYCAAWDDSLSGWVFGGGTKVNVL
binding result [1]: no binding | binding result [2]: binds | binding result [3]: no binding

B2: IL-33 tryptic epitope peptide (full length synthetic epitope peptide) (peptide)
peptide: MLMVTLSPTKDFWLHANNKEHSVELHK
notes: Chemically synthesised; also called predicted tryptic IL-33 fragment
binding result [4]: no binding

B3: 33_640237-2B IgG1 (antibody, V domains shown)
VH: EVQLLESGGGLVQPGGSLRLSCAASGFTFSSYAMSWVRQAPGKGLEWVSGIADDFTSTYYADPVKGRFTISRDNSKNTLYLQMNSLRAEDTAVYYCARDLWMMNYAGGLRYPFGYWGQGTMVTVSS
VL: SYVLTQPPSVSVSPGQTASITCSGERMGDKYAAWYQQKPGQSPVLVIYRDTKRPSGIPERFSGSNSGNTATLTISGTQAMDEADYYCGVLKQDTGVFGGGTKLTVL
notes: IgG1
binding result [5]: binds | binding result [6]: binds | binding result [7]: no binding | IC50 (nM) vs. His Avi IL-33, Huvec IL-8 assay [8]: 0.067 nM | binding result [9]: no binding (tested: about 10^-5.8 M) | binding result [10]: no binding (tested: about 10^-5.5 M) | binding result [11]: no binding (tested: about 10^-5.8 M)
